Experimental data: publication doi:10.1101/746693 (bioRxiv, 2019)

Target: T1, Proteinase Activated Receptor-4 (PAR4)-YFP, wild type (human, UniProt Q96RI0 48-385)
T1 sequence (looked up): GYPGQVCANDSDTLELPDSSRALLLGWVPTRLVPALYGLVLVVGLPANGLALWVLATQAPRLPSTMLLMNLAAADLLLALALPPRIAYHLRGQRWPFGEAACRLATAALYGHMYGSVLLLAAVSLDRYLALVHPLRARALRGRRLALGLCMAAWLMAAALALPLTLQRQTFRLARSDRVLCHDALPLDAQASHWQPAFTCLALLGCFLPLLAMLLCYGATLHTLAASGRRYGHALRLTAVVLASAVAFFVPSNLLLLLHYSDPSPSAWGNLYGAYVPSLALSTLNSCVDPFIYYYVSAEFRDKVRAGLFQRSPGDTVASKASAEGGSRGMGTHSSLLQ
Experiment: FRET or BRET

EC50 of (N-Me-A)-YPGKF-NH2 for recruitment (BRET): 6.8 µM | EC50 of A-(N-Me-Y)-PGKF-NH2 for recruitment (BRET): 14.2 µM | EC50 of AYPG-(Nα-Me-K)-F-NH2 for recruitment (BRET): 12.2 µM | EC50 of AYPGK-(N-Me-F)-NH2 for recruitment (BRET): 10.4 µM | EC50 of Ac-AYPGKF-NH2 for recruitment (BRET): 15 µM | EC50 of VYPGKF-NH2 for recruitment (BRET): 33.8 µM
B1: β-arrestin-1-renilla luciferase (natural protein, UniProt P49407 1-418, looked up)
chain: MGDKGTRVFKKASPNGKLTVYLGKRDFVDHIDLVDPVDGVVLVDPEYLKERRVYVTLTCAFRYGREDLDVLGLTFRKDLFVANVQSFPPAPEDKKPLTRLQERLIKKLGEHAYPFTFEIPPNLPCSVTLQPGPEDTGKACGVDYEVKAFCAENLEEKIHKRNSVRLVIRKVQYAPERPGPQPTAETTRQFLMSDKPLHLEASLDKEIYYHGEPISVNVHVTNNTNKTVKKIKISVRQYADICLFNTAQYKCPVAMEEADDTVAPSSTFCKVYTLTPFLANNREKRGLALDGKLKHEDTNLASSTLLREGANREILGIIVSYKVKVKLVVSRGGLLGDLASSDVAVELPFTLMHPKPKEEPPHREVPENETPVDTNLIELDTNDDDIVFEDFARQRLKGMKDDKEEEEDGTGSPQLNNR
